# Test results taken from PMC6601556.
# pKd: −log10 of the molar value.
# Columns and labels:
# Experiment in all cases: SPR
# [1] = biological target: 337_1_C08 variant VH H5E2 / VL 23
# [2] = biological target: 337_1_C08 variant VH H5E2 / VL 2
# [3] = biological target: 337_1_C08 variant VH K5E3 / VL 61
# [4] = biological target: 337_1_C08 variant VH K5T8 / VL 6
# [5] = biological target: 337_1_C08 variant VH K5T8 / VL 9
substance,measurement,setting,value
Monomeric human PD-1 rCD4 antigen (from UniProt Q15116 25-288) (receptor),pKd,[1],7.27
same,pKd,[2],7.52
same,pKd,[3],8.32
same,pKd,[4],8.05
same,pKd,[5],8.54
